Source: patent US20110262452A1 (Genentech, published 2011)
Values belong to the binder of their own block, whether it stands above or below them.

Key:
[1] = target: T1, Hepsin (human), recombinant, active (human, UniProt P05981 45-417); assay: phage competition ELISA: biotin-hepsin immobilised on NeutrAvidin plates, bound Fab25-phage detected with anti-M13-HRP, KD1 titrated as competitor of Fab25-phage
T1 construct: In the Octet and ELISA assays it was biotinylated with Sulfo-NHS-LC-Biotin; also called human hepsin; active hepsin

[2] = target: mouse hepsin extracellular domain (Ser45-Pro416) with C-terminal His-tag (mouse) (UniProt O35453); assay: enzyme inhibition, S2765 substrate, tight binding inhibition fit (Ki app); Fab25, murine hepsin
[3] = target: T1, Hepsin (human), recombinant, active; assay: cell-based or functional assay
[4] = target: T1, Hepsin (human), recombinant, active; assay: cell-based or functional assay; remark: listed apart in the source
[5] = target: T1, Hepsin (human), recombinant, active; assay: isothermal titration calorimetry, Fab25 titrated into active hepsin
Method: FIG. 18: Isothermal titration calorimetric experiment of Fab25 binding to active hepsin. The association reaction is exothermic and the stoichiometry of binding is 1:1 as expected.
Isothermal Titration calorimetry: TC experiments were performed on a ITC₂₀₀ instrument (GE healthcare). Fab25 and hepsin were purified separately on a size exclusion chromatographic column (Superdex S200, GE healthcare), using a buffer containing 50 mM HEPES pH 7.5 and 150 mM NaCl. The sample cell (204 μl) was loaded with hepsin (14 μM) and the Fab25 concentration in the syringe was 138 μM. A titration experiment typically consisted of 20 injections, each of 2 μL volume and 180 sec duration, with a 3 min interval between additions. The stirring rate was 1000 rpm. Raw data were integrated, corrected for nonspecific heats, normalized for concentration, and analyzed according to a 1:1 binding model assuming a single set of identical binding sites. (The isothermal titration curve was registered and analyzed using ORIGIN software provided with the ITC instrument. The data were integrated to provide a titration curve; and, by using a nonlinear least-squares fit, the binding constant KA, the heat of binding (ΔH), and the stoichiometry of binding were extracted from the curve.

[6] = target: T1, Hepsin (human), recombinant, active; assay: enzyme inhibition, S2765 substrate, tight binding inhibition fit (Ki app); Fab25, human hepsin
Method: (§1) Enzymatic assays with synthetic substrates: Fab25, IgG25, control Fab, or control IgG were incubated with hepsin (1 nM for human and 2 nM for mouse hepsin) in Hepes buffer (20 mM Hepes, pH 7.5, 150 mM NaCl, 5 mM CaCl₂, 0.01% Triton X-100) for 40 min at room temperature. For experiments with 3,4-dichloro-isocoumarin (DCI), hepsin (1 nM) was incubated with DCI in Hepes buffer containing 0.5% DMSO for 40 min. S2765 was added (final concentration of 0.2 mM) and the linear rates of the increase in absorbance at 405 nm measured on a kinetic microplate reader (Versamax, Molecular Devices, Sunnyvale, Calif.). Data were expressed as fractional enzyme activity (vᵢ/vₒ) and fitted to a four parameter regression curve fitting program (Kaleidagraph Version 3.6, Synergy Software) to determine the IC₅₀ values. Values are the average±SD of three independent experiments. Kᵢ^app values for Fab25 and IgG25 were calculated by fitting the data to the equation for tight binding inhibition systems (Morrison, 1969; Olivero et al., 2005).

[7] = target: mouse hepsin extracellular domain (Ser45-Pro416) with C-terminal His-tag (mouse) (UniProt O35453)
[8] = target: T1, Hepsin (human), recombinant, active; assay: BLI (Octet RED), biotinylated hepsin on streptavidin sensor, Fab25 in solution, 1:1 fit
Method: Fab25 binding to hepsin: An Octet-RED system equipped with streptavidin SBC biosensor tips was purchased from ForteBio (Menlo Park, Calif.). Prior to the start of the experiment, the sensor tips were pre-wet for 15 minutes at 25° C. in a buffer containing 50 mM Hepes pH 7.5, 150 mM NaCl and 0.05% tween-20. Biotinylated hepsin (7.5 μg/ml) was captured on to the streptavidin sensor for 5 minutes with agitation at 1000 rpm. The sensors were briefly washed in buffer before dipping them on to the sample wells containing Fab25 (2-fold serial dilution starting from 200 nM) and buffer control. Association was monitored for 10 minutes and dissociation was followed for 30 minutes. The data was fit to 1:1 binding model using Octet-RED analysis software.

[9] = target: T1, Hepsin (human), recombinant, active; assay: enzyme inhibition, S2765 substrate (ratio of Ki app)
Method: as §1

pro-hepsin = pro-hepsin (UniProt P05981 45-417, limits assumed); assay: SPR (BIAcore 3000), Ab25 captured on CM5 chip, pro-hepsin injected, steady state analysis
Method: (§2) FIG. 17: A. Surface plasmon resonance was used to measure the binding affinity of Ab25 with active human hepsin. Serial dilutions of hepsin (0.39 nM to 200 nM) were injected to a CM5 biosensor chip with captured Ab25 for 3 minutes and the dissociation was monitored for 15 minutes. […] Serial dilutions of pro-hepsin (195 nM to 80 μM) were injected to a CM5 biosensor chip with captured Ab25 for 2 minutes.
(§3) Binding of Ab25 to hepsin by surface plasmon resonance: Surface plasmon resonance measurements were performed on a BIAcore™-3000 instrument (GE Health Care, NJ) to determine binding affinity of the Ab25. Rabbit anti-human IgG were chemically immobilized (amine coupling) on CM5 biosensor chips and Ab25 was captured to give approximately 350 response units (RU). For kinetics measurements, two-fold serial dilutions of active hepsin (1 nM to 500 nM) were injected in HBS-P buffer at 25° C. with a flow rate of 30 μl/min. Association rates (kₐ) and dissociation rates (kd) were obtained by using a simple one-to-one Langmuir binding model (BIA-Evaluation) and the equilibrium dissociation constants (KD) were calculated (kd/kₐ). Due to rapid kinetics, a steady state measurement was used to determine the affinity of pro-hepsin with Ab25. […] The values of Req were calculated and plotted individually against C (concentration of pro-hepsin) using BIA-Evaluation to determine KD.

[10] = target: T1, Hepsin (human), recombinant, active; assay: enzyme inhibition, S2765 substrate, tight binding inhibition fit (Ki app); IgG25, not Fab; human hepsin
Method: as §1

[11] = target: T1, Hepsin (human), recombinant, active; assay: SPR (BIAcore 3000), Ab25 captured by anti-human IgG on CM5 chip, active human hepsin injected, 1:1 fit
Method: as §2, §3

T1 sequence (P05981 45-417 limits assumed): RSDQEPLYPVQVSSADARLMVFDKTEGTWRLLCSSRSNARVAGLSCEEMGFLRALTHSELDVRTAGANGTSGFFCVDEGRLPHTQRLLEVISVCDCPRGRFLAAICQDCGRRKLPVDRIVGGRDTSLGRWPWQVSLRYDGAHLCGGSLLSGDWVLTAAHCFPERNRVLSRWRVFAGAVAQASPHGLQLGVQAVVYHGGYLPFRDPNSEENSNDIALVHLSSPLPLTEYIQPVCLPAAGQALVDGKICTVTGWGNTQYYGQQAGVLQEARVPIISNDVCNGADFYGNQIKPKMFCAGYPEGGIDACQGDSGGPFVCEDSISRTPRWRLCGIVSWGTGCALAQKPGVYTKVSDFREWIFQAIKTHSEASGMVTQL
Sequence of pro-hepsin (P05981 45-417 limits assumed): as above

IC50 (read off the curve) [1]: ~200 pM
B1: Kunitz domain inhibitor-1 (KD1) derived from HGFA-inhibitor-1 (HAI-1) (other, UniProt O43278 246-303, looked up)
chain: TEDYCLASNKVGRCRGSFPRWYYDPTEQICKSFVYGGCLGNKNNYLREEECILACRGV

Ki [2]: 329 nM | IC50 (read off the curve) [3]: ~5 nM | IC50 of hepsin-mediated pro-uPA activation (two-stage enzymatic assay) [4]: 3.3 nM | Kd [5]: 6.1 nM | stoichiometry of binding [5]: 1 Fab25 per hepsin | Ki [6]: 4.1 nM | IC50 (read off the curve) [7]: 300 nM | Kd [8]: 2.55 nM | fold more potent inhibition than of murine hepsin [9]: ~80 fold
B2: anti-hepsin antibody Fab25 (Fab, V domains shown)
VH: EVQLVESGGGLVQPGGSLRLSCAASGFNFSYSYMHWVRQAPGKGLEWVASIYSYYGSTYYADSVKGRFTISADTSKNTAYLQMNSLRAEDTAVYYCARSDSWSYKSGYTQKIYSKGLDYWGQGTLVTVSS
VL: DIQMTQSPSSLSASVGDRVTITCRASQSVSSAVAWYQQKPGKAPKLLIYSASSKGVPSRFSGSRSGTDFTLTISSLQPEDFATYYCQQYYSSYYLLTFGQGTKVEIK
notes: also called HpsFab25; Clone 25 (Fab form)

Kd (pro-hepsin): 5.52 µM | Ki [10]: 11.3 nM | Kd [11]: 10.6 nM
B3: anti-hepsin antibody IgG25 (antibody, V domains shown)
VH: EVQLVESGGGLVQPGGSLRLSCAASGFNFSYSYMHWVRQAPGKGLEWVASIYSYYGSTYYADSVKGRFTISADTSKNTAYLQMNSLRAEDTAVYYCARSDSWSYKSGYTQKIYSKGLDYWGQGTLVTVSS
VL: DIQMTQSPSSLSASVGDRVTITCRASQSVSSAVAWYQQKPGKAPKLLIYSASSKGVPSRFSGSRSGTDFTLTISSLQPEDFATYYCQQYYSSYYLLTFGQGTKVEIK
notes: also called Ab25; mab 25
